Positions count from the first letter of the chain named. Like-named read-outs stand apart in the source and are kept apart here.
Tests used:
[1] = biological target: T1, human CD71 (transferrin receptor protein 1, TfR1) on human cell lines (human, UniProt P02786 1-760); assay: FACS on H292 cells
T1 construct: whole, on cells; also called huCD71
Description: (§1) In this study, the binding of the antibodies of the present disclosure to the indicated cell lines were performed using a standard FACS labelling method.

[2] = biological target: T1, human CD71 (transferrin receptor …); assay: FACS on HCC1806 cells
Description: as §1

[3] = biological target: T2, recombinant human CD71 protein (human, UniProt P02786 89-760); assay: ELISA; Kd against CD71 21.12
T2 construct: also called recombinant CD71
Description: (§2) The amount of bound antibody was detected by incubation and detection by goat anti-human antibody conjugated to horseradish peroxidase and Ultra TMB (Thermo Fisher Scientific) detection.

[4] = biological target: T2, recombinant human CD71 protein; assay: ELISA; Kd against CD71 21.12; remark: listed apart in the source
Description: as §2

[5] = biological target: T1, human CD71 (transferrin receptor …); assay: FACS on H292 cells, uncleaved
Description: In this study, the binding of the antibodies of the present disclosure to the indicated cell lines were performed using a standard FACS labelling method. […] These activatable antibodies include the light chain of the correspondingly named sequence listed above in Table C. The cells were labeled with the indicated test article at the indicated concentrations and subsequently detected with an Alexa Fluor 647 labeled goat anti-human IgG secondary antibody.

[6] = biological target: T2, recombinant human CD71 protein; assay: ELISA, 1 µg/mL CD71, uncleaved
Description: as §2

[7] = biological target: T2, recombinant human CD71 protein; assay: ELISA, 1 µg/mL recombinant human CD71, uncleaved
Description: as §2

[8] = biological target: T2, recombinant human CD71 protein; assay: ELISA, 1 µg/mL CD71 on nickel plates, not activated
Description: as §2

[9] = biological target: T1, human CD71 (transferrin receptor …); assay: FACS on DMS 79 cells
Description: (§3) In this study, the binding of the antibodies and ADCs of the present disclosure to the indicated cell lines were performed using a standard FACS labelling method.

[10] = biological target: T1, human CD71 (transferrin receptor …); assay: FACS on DMS 153 cells
Description: as §3

[11] = biological target: T1, human CD71 (transferrin receptor …); assay: FACS on BxPC3 cells
[12] = biological target: T1, human CD71 (transferrin receptor …); assay: FACS on MDA MB 231 cells
Description: as §1

[13] = biological target: T1, human CD71 (transferrin receptor …); assay: FACS on FaDu cells, uncleaved
Description: as §1

[14] = biological target: T1, human CD71 (transferrin receptor …); assay: FACS on HT29 cells, uncleaved
Description: as §1

[15] = biological target: T1, human CD71 (transferrin receptor …); assay: FACS on BxPC3 cells, uncleaved
Description: as §1

[16] = biological target: T1, human CD71 (transferrin receptor …); assay: FACS on MDA MB 231 cells, uncleaved
Description: as §1

[17] = biological target: T1, human CD71 (transferrin receptor …); assay: FACS on FaDu cells; Kd against CD71-Ab
Description: as §1

[18] = biological target: T1, human CD71 (transferrin receptor …); assay: FACS on HT29 cells; Kd against CD71-Ab
Description: as §1

[19] = biological target: T1, human CD71 (transferrin receptor …); assay: FACS on BxPC3 cells; Kd against CD71-Ab
Description: as §1

[20] = biological target: T1, human CD71 (transferrin receptor …); assay: FACS on MDA MB 231 cells; Kd against CD71-Ab
Description: as §1

Human CD71-His6 = biological target: T3, Human CD71-His6 (human, UniProt P02786 89-760, limits assumed); assay: BLI (Octet), CD71-His6 on Ni-NTA, Fab in solution
T3 construct: immobilized on Ni-NTA substrate (Octet); also called recombinant human CD71 protein with hexa-histidine tag
Text: (§4) The recombinant CD71 proteins included a hexa-histidine (His6) peptide tag, by which the protein was immobilized to a Ni-NTA (nitrilotriacetic acid)-containing substrate.

Cyno CD71-His6 = biological target: T4, Cyno CD71-His6 (cynomolgus monkey, UniProt H9EXL1 89-760 (rhesus entry)); assay: BLI (Octet), CD71-His6 on Ni-NTA, Fab in solution
T4 construct: immobilized on Ni-NTA substrate (Octet); also called recombinant cynomolgus CD71 protein with hexa-histidine tag
Text: as §4

T3 sequence (P02786 other isoform, or with tags, fused parts or gaps limits assumed): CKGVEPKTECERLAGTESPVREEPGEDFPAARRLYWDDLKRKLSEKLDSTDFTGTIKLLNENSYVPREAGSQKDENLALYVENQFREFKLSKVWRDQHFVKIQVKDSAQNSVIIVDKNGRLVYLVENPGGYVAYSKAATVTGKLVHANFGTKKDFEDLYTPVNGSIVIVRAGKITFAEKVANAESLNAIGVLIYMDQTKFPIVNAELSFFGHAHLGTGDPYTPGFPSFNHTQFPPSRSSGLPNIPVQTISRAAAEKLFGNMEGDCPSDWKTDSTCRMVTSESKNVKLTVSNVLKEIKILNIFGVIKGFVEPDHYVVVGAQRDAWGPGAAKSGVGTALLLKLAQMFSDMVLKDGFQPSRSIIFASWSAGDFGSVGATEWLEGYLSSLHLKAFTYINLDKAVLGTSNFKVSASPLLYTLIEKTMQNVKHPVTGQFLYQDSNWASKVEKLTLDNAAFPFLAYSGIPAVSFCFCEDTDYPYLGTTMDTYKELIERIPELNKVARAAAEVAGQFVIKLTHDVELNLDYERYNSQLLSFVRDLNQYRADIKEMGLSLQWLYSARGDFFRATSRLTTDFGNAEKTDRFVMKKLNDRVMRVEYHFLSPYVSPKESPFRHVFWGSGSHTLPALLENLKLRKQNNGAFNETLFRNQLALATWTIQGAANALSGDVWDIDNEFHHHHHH
T2 sequence (P02786 89-760 limits assumed): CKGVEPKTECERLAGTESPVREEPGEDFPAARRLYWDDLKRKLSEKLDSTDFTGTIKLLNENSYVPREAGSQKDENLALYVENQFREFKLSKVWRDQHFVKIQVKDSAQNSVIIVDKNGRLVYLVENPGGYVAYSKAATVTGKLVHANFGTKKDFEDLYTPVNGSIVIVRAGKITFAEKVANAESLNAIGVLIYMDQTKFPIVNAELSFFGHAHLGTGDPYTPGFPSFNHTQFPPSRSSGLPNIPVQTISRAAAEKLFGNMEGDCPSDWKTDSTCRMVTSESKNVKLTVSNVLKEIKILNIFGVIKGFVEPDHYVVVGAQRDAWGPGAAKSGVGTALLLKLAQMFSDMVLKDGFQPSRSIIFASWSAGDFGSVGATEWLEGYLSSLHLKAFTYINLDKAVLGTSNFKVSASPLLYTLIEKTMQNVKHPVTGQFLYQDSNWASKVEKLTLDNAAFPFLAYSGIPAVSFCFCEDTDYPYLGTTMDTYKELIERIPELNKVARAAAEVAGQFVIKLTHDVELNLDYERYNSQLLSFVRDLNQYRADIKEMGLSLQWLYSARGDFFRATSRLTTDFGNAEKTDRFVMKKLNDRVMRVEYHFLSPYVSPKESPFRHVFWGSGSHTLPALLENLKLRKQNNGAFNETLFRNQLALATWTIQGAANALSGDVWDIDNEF
T1 sequence (P02786 whole entry): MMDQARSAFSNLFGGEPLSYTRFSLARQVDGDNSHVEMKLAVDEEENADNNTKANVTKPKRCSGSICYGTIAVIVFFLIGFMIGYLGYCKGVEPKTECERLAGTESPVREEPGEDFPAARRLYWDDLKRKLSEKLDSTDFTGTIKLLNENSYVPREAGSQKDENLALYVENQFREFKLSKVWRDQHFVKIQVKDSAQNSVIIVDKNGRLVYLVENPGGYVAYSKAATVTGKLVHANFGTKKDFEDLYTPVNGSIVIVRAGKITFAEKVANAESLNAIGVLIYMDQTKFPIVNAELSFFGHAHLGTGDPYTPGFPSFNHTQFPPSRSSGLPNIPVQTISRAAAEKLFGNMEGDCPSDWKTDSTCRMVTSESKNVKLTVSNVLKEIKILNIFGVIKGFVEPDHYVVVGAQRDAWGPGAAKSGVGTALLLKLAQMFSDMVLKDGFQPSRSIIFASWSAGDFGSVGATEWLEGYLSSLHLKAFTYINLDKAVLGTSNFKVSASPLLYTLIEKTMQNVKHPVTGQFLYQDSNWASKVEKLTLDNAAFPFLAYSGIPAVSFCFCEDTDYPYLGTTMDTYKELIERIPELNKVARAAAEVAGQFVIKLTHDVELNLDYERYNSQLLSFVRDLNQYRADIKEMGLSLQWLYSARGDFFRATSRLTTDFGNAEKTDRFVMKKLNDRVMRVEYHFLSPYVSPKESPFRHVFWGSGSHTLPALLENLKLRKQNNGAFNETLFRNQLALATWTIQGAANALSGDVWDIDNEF
T4 sequence (chain, as listed by the source): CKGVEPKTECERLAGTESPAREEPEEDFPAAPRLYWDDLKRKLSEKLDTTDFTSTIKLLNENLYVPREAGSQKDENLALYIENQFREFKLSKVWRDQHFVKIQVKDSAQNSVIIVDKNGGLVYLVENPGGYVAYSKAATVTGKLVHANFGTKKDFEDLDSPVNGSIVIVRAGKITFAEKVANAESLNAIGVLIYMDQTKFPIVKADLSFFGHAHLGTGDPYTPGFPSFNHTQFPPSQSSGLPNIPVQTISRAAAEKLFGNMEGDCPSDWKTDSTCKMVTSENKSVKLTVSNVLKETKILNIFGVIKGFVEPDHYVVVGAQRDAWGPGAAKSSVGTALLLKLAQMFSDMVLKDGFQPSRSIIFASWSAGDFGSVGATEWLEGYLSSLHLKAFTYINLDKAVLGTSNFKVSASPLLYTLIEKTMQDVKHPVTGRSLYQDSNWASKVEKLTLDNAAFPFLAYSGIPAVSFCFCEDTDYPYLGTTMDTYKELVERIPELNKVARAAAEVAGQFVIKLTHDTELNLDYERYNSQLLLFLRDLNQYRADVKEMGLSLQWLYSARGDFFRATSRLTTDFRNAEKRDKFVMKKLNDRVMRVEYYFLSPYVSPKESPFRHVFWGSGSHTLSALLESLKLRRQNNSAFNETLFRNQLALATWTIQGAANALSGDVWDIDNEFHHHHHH

B1: anti-human CD71 TF02.13-2001 activatable antibody (antibody, human IgG1, kappa)
heavy: not shown
light: QGQSGQGNLCTEHSAALDCRSYGGGSSGGSISSGLLSGRSDNHGGGSDIQMTQSPSSLSASVGDRVTITCSASSSVYYMYWFQQKPGKAPKLWIYSTSNLASGVPSRFSGSGSGTDYTLTISSMQPEDFATYYCQQRRNYPYTFGQGTKLEIKRTVAAPSVFIFPPSDEQLKSGTASVVCLLNNFYPREAKVQWKVDNALQSGNSQESVTEQDSKDSTYSLSSTLTLSKADYEKHKVYACEVTHQGLSSPVTKSFNRGEC
- Bmax (MFI) [1]: 2210 MFI
- Kd [1]: 92.3 nM
- Kd [2]: ~200 nM
- ME (masking efficiency) [3]: 42 fold
- ME (masking efficiency) [4]: 65 fold
- Kd [5]: 27.5 nM
- Kd [6]: 9.14 nM
- Kd [7]: 2.53 nM
- Kd [8]: 13 nM

B2: anti-human CD71 Ab21.12-Duoc (antibody, human IgG1, kappa)
heavy: not shown
light: DIQMTQSPSSLSASVGDRVTITCSASSSVYYMYWFQQKPGKAPKLWIYSTSNLASGVPSRFSGSGSGTDYTLTISSMQPEDFATYYCQQRRNYPYTFGQGTKLEIKRTVAAPSVFIFPPSDEQLKSGTASVVCLLNNFYPREAKVQWKVDNALQSGNSQESVTEQDSKDSTYSLSSTLTLSKADYEKHKVYACEVTHQGLSSPVTKSFNRGEC
modifications: duocarmycin conjugated to the antibody; chain and residues not stated
notes: antibody drug conjugate of Ab21.12; also called anti-human CD71 antibody conjugated to duocarmycin
- Kd [9]: 1.09 nM
- Kd [10]: 2.3 nM

B3: anti-CD71 M21 monoclonal antibody (antibody, V domains shown)
VH: EVQLQESGTVLARPGASVKMSCKASGYTFTSYWMHWVKQRPGQGLEWIGAIYPGNSETGYNQNFKGKAKLTAVTSASTAYMDLSSLTNEDSAVYYCTRENWDPGFAFWGQGTLITVSA
VL: DIVMTQTPAIMSASPGEKVTITCSASSSVYYMYWFQQKPGTSPKLWIYSTSNLASGVPVRFSGSGSGTSYSLTISRMEAEDAATYYCQQRRNYPYTFGGGTKLEIKR
notes: mouse monoclonal antibody from hybridoma; also called muM21; Mab21
- Kd [11]: ~3 nM

B4: anti-human CD71 TF02.13-3001 activatable antibody (antibody, human IgG1, kappa)
heavy: not shown
light: QGQSGQGNLCTEHSAALDCRSYGGGSSGGSAVGLLAPPGGLSGRSDNHGGSDIQMTQSPSSLSASVGDRVTITCSASSSVYYMYWFQQKPGKAPKLWIYSTSNLASGVPSRFSGSGSGTDYTLTISSMQPEDFATYYCQQRRNYPYTFGQGTKLEIKRTVAAPSVFIFPPSDEQLKSGTASVVCLLNNFYPREAKVQWKVDNALQSGNSQESVTEQDSKDSTYSLSSTLTLSKADYEKHKVYACEVTHQGLSSPVTKSFNRGEC
notes: also called CD71-ActAb 1
- Bmax (MFI) [1]: 1820 MFI
- Kd [1]: 52.1 nM
- Kd [2]: ~200 nM
- Kd [12]: 30.6 nM
- Kd [13]: 14.7 nM
- Kd [14]: 23 nM
- Kd [5]: 10.2 nM
- Kd [15]: 35.2 nM
- Kd [16]: 38.8 nM
- ME (masking efficiency) [17]: 38 fold
- ME (masking efficiency) [18]: 45 fold
- ME (masking efficiency) [19]: 43 fold
- ME (masking efficiency) [20]: 46 fold
- Kd [7]: 0.813 nM

B5: anti-human CD71 TF02.18-2001 activatable antibody (antibody, human IgG1, kappa)
heavy: not shown
light: QGQSGQGCTEHSFALDCGGGSSGGSISSGLLSGRSDNHGGGSDIQMTQSPSSLSASVGDRVTITCSASSSVYYMYWFQQKPGKAPKLWIYSTSNLASGVPSRFSGSGSGTDYTLTISSMQPEDFATYYCQQRRNYPYTFGQGTKLEIKRTVAAPSVFIFPPSDEQLKSGTASVVCLLNNFYPREAKVQWKVDNALQSGNSQESVTEQDSKDSTYSLSSTLTLSKADYEKHKVYACEVTHQGLSSPVTKSFNRGEC
notes: also called CD71-ActAb 2
- ME (masking efficiency) [3]: 9 fold
- ME (masking efficiency) [4]: 11 fold
- Kd [13]: 15.4 nM
- Kd [14]: 19.7 nM
- Kd [15]: 36.4 nM
- Kd [6]: 1.59 nM
- Kd [16]: 32 nM
- ME (masking efficiency) [17]: 39 fold
- ME (masking efficiency) [18]: 39 fold
- ME (masking efficiency) [19]: 43 fold
- ME (masking efficiency) [20]: 38 fold
- Kd [8]: 3 nM

B6: Ab21.10 LcB:HcA (antibody, V domains shown)
VH: QVQLVQSGAEVKKPGASVKVSCKASGYTFTSYWMHWVRQAPGQGLEWMGAIYPGNSETGYAQKFQGRVTMTRDTSTSTVYMELSSLRSEDTAVYYCARENWDPGFAFWGQGTLVTVSS
VL: DIQMTQSPSSLSASVGDRVTITCSASSSVYYMYWFQQKPGKAPKLWIYSTSNLASGVPSRFSGSGSGTDYTLTISSMQPEDFATYYCQQRRNYPYTFGQGTKLEIK
notes: humanized; detected with anti-human IgG; also called huCD71 Ab21.10
- binding result [11]: binds

B7: anti-human CD71 TF01-2001 activatable antibody (antibody, human IgG1, kappa)
heavy: not shown
light: QGQSGQGQFCPWSYYLIGDCDIGGGSSGGSISSGLLSGRSDNHGGGSDIQMTQSPSSLSASVGDRVTITCSASSSVYYMYWFQQKPGKAPKLWIYSTSNLASGVPSRFSGSGSGTDYTLTISSMQPEDFATYYCQQRRNYPYTFGQGTKLEIKRTVAAPSVFIFPPSDEQLKSGTASVVCLLNNFYPREAKVQWKVDNALQSGNSQESVTEQDSKDSTYSLSSTLTLSKADYEKHKVYACEVTHQGLSSPVTKSFNRGEC
notes: also called huCD71 TF01-2001
- ME (masking efficiency) [4]: 500 fold
- Kd [6]: 70 nM

B8: anti-CD71 Fab fragment (papain digest of anti-CD71 21.12) (Fab, V domains shown)
VH: B6 VH with V20M, M48I, V68A, M70L, R72A, V79A, A97T, V114I
VL: DIQMTQSPSSLSASVGDRVTITCSASSSVYYMYWFQQKPGKAPKLWIYSTSNLASGVPSRFSGSGSGTDYTLTISSMQPEDFATYYCQQRRNYPYTFGQGTKLEIKR
- Kd (Human CD71-His6): 14 nM
- koff (Human CD71-His6): 0.00398 s⁻¹
- kon (Human CD71-His6): 664000 M⁻¹ s⁻¹
- Kd (Cyno CD71-His6): 6 nM
- koff (Cyno CD71-His6): 0.00559 s⁻¹
- kon (Cyno CD71-His6): 390000 M⁻¹ s⁻¹

From US20220306759A1 (CYTOMX THERAPEUTICS, published 2022)
